Data set [1] has as its target T1, PDGF-BB (UniProt P01127 P01127:82-190). Briefly: surface thermal melt; Tm about 32 C unbound to about 42 C bound; 0.75 mg/mL HSA, 40% DMSO; also bound peak about 55 C with 100 nM in human plasma without DMSO. The conditions noted are these: chain copies: 2 (homodimer, inferred); label: 3' Cy3. The method, then:
(§1) PDGF-BB and PDGF-AA were obtained from R&D Systems (Minneapolis, USA). Human serum albumine (HSA), phosphate buffered saline (PBS) and all other reagents were ordered from Sigma-Millipore. The aptamer was covalently linked to the solid support by spotting 4.5 μL of the 0.25 uM aptamer solution in 1× PBS buffer. The spots were incubated for 10 minutes to allow for surface immobilization and washed with 1× PBS buffer. Solutions with a variable amount of PDGF-BB or PDGF-AA (630 nM to 2 nM 3.16× dilution series or 300 nM to 75 nM 2× dilution series, respectively) and containing 0.75 mg/mL. HSA, 40% DMSO (v/v) were applied to the surface coated with the aptamers and incubated for 5 minutes at room temperature. The temperature was increased to 45° C. by placing the slide on a heating element. The change in fluorescence intensity of the modified aptamer was as a function of temperature was monitored by fluorescence microscope coupled to a CMOS sensor. FIGS. 9A and 10 presents normalized first derivative of the melting curves for PDGF-BB or PDGF-AA titration experiments, respectively. […]

A further data set concerns the target PDGF-AA (UniProt P04085 P04085:87-211). Briefly: surface thermal melt, 75-300 nM PDGF-AA; no binding and no dose response; 0.75 mg/mL HSA, 40% DMSO. The note with it: tags: R&D Systems; chain copies: 2 (homodimer, inferred); label: 3' Cy3. The method, then:
as §1, with “The solid support consisted of coated ITO glass slides functionalized with azido groups (Sikemia, Grabels, France) to form a covalent bond between the DBCO-labeled aptamer and the surface. PDGF-BB and” for “PDGF-BB and”

Data set [2] addresses T1, PDGF-BB. Nature of the data set: fluorescence thermal melt in solution; Tm about 55 C unbound to about 65 C bound; 1x PBS, 1 mM MgCl2, 0.1 mg/ml BSA. The note with it: chain copies: 2 (homodimer, inferred); label: 5' fluorescein, 3' Black Hole Quencher 1. Here is the method: In one representative experiment, aptamer comprising a competent binding state and a dye pair (fluoresceine and black hole quencher) was measured for their persistence in the changed environment of temperature as described herein. […] PDGF-BB, bovine serum albumine (BSA), magnesium chrolide, and phosphate buffered saline (PBS) all other buffers were ordered from Sigma-Millipore. 41T aptamer at a concentration of either 316 nM, or 100 nM, or 31.6 nM, or 10 nM were mixed with variable concentrations PDGF-BB (from […] dilution factor) in 1× PBS containing 1 mM MgCl₂, and 0.1 mg/ml BSA on white 384 well PCR plate (BioRad) and subjected to the following thermal protocol on BioRad CFX384 qPCR instrument: lid at 95° C., melting curve step from 30° C. to 80° C. with images (FAM/SYBR channel) every 0.5° C., 10 seconds per step. FIG. 5 presents melting curves (left panels) and the first derivative (right panels) of thermal titration experiments. To estimate the relative populations of free aptamers and aptamers bound to the target (% bound), the areas under the curve of the first derivative (dRFU/dT) were integrated for both unbound (left peak with Tₘ˜55° C.) and bound (right peak with Tₘ˜65° C.) peaks. % bound as a function of the target concentration is presented as a dose response in FIG. 6.

T1 sequence (P01127 82-190, one chain of several): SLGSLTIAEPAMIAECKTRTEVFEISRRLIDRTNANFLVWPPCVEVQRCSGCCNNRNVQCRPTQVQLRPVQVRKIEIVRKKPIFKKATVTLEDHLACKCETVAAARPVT

B1: 41T aptamer (surface-immobilized, FIG. 4B) (ssDNA)
DNA: TTTTTTACTCAGGGCACTGCAAGCAATTGTGGTCCCAATGGGCTGAGTA
modifications: 5' DBCO-TEG via five-thymidine linker, thymine-linked Black Hole Quencher 2
Consider B1, for which the binding result in the data set with PDGF-BB [1] is “binds”; in the data set with PDGF-AA, “no binding”.

B2: 41T aptamer (solution, FIG. 4A) (ssDNA)
DNA: TACTCAGGGCACTGCAAGCAATTGTGGTCCCAATGGGCTGAGTA
With B2, in the data set with PDGF-BB [2], the binding result was “binds”.

Source of the values: US20250314646, “SYSTEMS AND METHODS FOR ANALYTE DETECTION IN BIOLOGICAL SOLUTIONS” (eGlint, Inc., published 2025).
